What is called Kd is the constant that tells how readily two partners part at equilibrium. Low values mean tighter binding, high ones weaker binding. A word on the koff: it is the first-order rate constant of dissociation. Low readings indicate a long-lived complex, high ones a short-lived complex. By kon is commonly meant the second-order rate constant of association.

The values below come from patent US20250136695A1 (PERSONGEN BIOTHERAPEUTICS SUZHOU, published 2025).

Experiment [1] has as its target T1, PDL1-His (UniProt Q9NZQ7 19-238, limits assumed).
T1 construct: not shown: His tag
Description: BLI (OCTET R2), Fc-tagged antibody on protein A probes, PDL1-His as mobile phase.

Experiment [2] has as its target T2, PDL1 expressed on recombinant CHO cells (CHO-K1/PDL1; aAPC CHO-PDL1) (UniProt Q9NZQ7 19-290, limits assumed). Kind of experiment: cell-based or functional assay.
Experiment [3] has as its target T2, PDL1 expressed on recombinant CHO cells …. Description: cell-based or functional assay. The source holds these as a separate data set.
The target is the same in experiment [4]. Kind of experiment: cell-based or functional assay. This is another data set of the same source.

T1 sequence (Q9NZQ7 19-238 limits assumed): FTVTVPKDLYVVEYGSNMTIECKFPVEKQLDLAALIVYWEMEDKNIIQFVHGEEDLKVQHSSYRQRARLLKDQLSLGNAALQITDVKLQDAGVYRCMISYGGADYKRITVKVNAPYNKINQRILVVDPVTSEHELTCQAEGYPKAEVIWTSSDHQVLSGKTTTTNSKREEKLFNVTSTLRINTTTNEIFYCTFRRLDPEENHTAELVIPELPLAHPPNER
T2 sequence (Q9NZQ7 19-290 limits assumed): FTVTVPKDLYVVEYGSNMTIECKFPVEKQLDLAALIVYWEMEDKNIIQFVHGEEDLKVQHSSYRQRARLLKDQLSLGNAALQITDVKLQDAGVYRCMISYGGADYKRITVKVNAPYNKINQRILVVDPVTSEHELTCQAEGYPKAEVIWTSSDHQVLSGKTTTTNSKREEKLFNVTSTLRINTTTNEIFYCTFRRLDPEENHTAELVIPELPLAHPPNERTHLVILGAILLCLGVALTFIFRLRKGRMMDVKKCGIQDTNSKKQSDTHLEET

B1: 17-A06-G4S-23-G3 (Fc fusion)
chain: MAQVKLEESGGGLVQAGGSLRLSCVASGRSFITYAVGWFRQAPGKEREFVASINWSGAMTYYTDSVNGRFAISRDNAKNTVYLQMNNLKLEDTAVYYCASTISAVTPTNGYQNWGQGTQVTVSSGGGGSMAAVQLVESGGGLVQAGGSLRLSCVASGRSFITYAVGWFRQAPGKEREFVASVNWSGAMTYYADAVNGRFTISRDNAKNTVYLQMNNLKLEDTAVYYCAATISAVTPTNGYQNWGQGTQVTVSS
notes: also called bivalent antibody 17-A06-G4S-23-G3; bivalent PDL1 antibody; not shown: Fc tag ('Fc-tagged')
In experiment [1], B1 showed an equilibrium dissociation constant (Kd) of 4.2 nM, a koff of 0.000649 s⁻¹ and a kon of 155000 M⁻¹ s⁻¹. In experiment [2], the “EC50 of the PD1/PDL1 Block Assay (luciferase fold of induction, Jurkat-PD-1-NFAT-Luc + aAPC CHO-PDL1)” value stood at 2.06 µg/mL.

B2: 29-H9 (VHH fused to human IgG1 Fc) (Fc fusion, not shown: a dimerising Fc or GST)
chain: RLQLVESGGGLVQAGGSLRLSCAASGFTFSTYAMSWYRGVPEKERELVAFISSDGGGTTYRDSVKGRFTISRDNGKNTVYLQMNSLKPEDTGVYYCARGLAQIWGQGTQVTVSS
Take B2: the “EC50 of PD-1/PDL1 blocking against Nivolumab ([…] µg/mL), same reporter assay” value (shortened to “EC50 of PD-1/PDL1 blocking”) in experiment [3] was greater than 0.322 µg/mL. The “EC50 of the PD1/PDL1 Block Assay (luciferase fold of induction, Jurkat-PD1-NFAT-Luc + aAPC CHO-PDL1); printed as 03-29-H9; the table gives no unit, the axis is in µg/mL” value in experiment [4] was determined as 1.44 µg/mL.

B3: 17-A06-G4S-29-H9 (Fc fusion)
chain: MAQVKLEESGGGLVQAGGSLRLSCVASGRSFITYAVGWFRQAPGKEREFVASINWSGAMTYYTDSVNGRFAISRDNAKNTVYLQMNNLKLEDTAVYYCASTISAVTPTNGYQNWGQGTQVTVSSGGGGSRLQLVESGGGLVQAGGSLRLSCAASGFTFSTYAMSWYRGVPEKERELVAFISSDGGGTTYRDSVKGRFTISRDNGKNTVYLQMNSLKPEDTGVYYCARGLAQIWGQGTQVTVSS
notes: also called bivalent antibody 17-A06-G4S-29-H9; bivalent PDL1 antibody; not shown: Fc tag ('Fc-tagged')
For B3, in experiment [1], the dissociation constant Kd is 2.73 nM, the koff was determined as 0.00048 s⁻¹ and the kon amounted to 176000 M⁻¹ s⁻¹. Also, the “EC50 of the PD1/PDL1 Block Assay (luciferase fold of induction, Jurkat-PD-1-NFAT-Luc + aAPC CHO-PDL1)” value in experiment [2] was 1.35 µg/mL.

B4: 23-G3-G4S-29-H9 (Fc fusion)
chain: MAAVQLVESGGGLVQAGGSLRLSCVASGRSFITYAVGWFRQAPGKEREFVASVNWSGAMTYYADAVNGRFTISRDNAKNTVYLQMNNLKLEDTAVYYCAATISAVTPTNGYQNWGQGTQVTVSSGGGGSRLQLVESGGGLVQAGGSLRLSCAASGFTFSTYAMSWYRGVPEKERELVAFISSDGGGTTYRDSVKGRFTISRDNGKNTVYLQMNSLKPEDTGVYYCARGLAQIWGQGTQVTVSS
notes: also called bivalent antibody 23-G3-G4S-29-H9; bivalent PDL1 antibody; not shown: Fc tag ('Fc-tagged')
In experiment [1], B4 gave a dissociation constant Kd of 1.92 nM, a koff of 0.000455 s⁻¹ and a kon of 238000 M⁻¹ s⁻¹.

B5: 17-A06 (VHH fused to human IgG1 Fc) (Fc fusion, not shown: a dimerising Fc or GST)
chain: MAQVKLEESGGGLVQAGGSLRLSCVASGRSFITYAVGWFRQAPGKEREFVASINWSGAMTYYTDSVNGRFAISRDNAKNTVYLQMNNLKLEDTAVYYCASTISAVTPTNGYQNWGQGTQVTVSS
Take B5: the “EC50 of PD-1/PDL1 blocking” value in experiment [3] was greater than 0.322 µg/mL. Besides, the “EC50 of the PD1/PDL1 Block Assay (luciferase fold of induction, Jurkat-PD1-NFAT-Luc + aAPC CHO-PDL1); printed as 03-17-A06; the table gives no unit, the axis is in µg/mL” value in experiment [4] turned out to be 1.96 µg/mL.

B6: 23-G3 (VHH fused to human IgG1 Fc) (Fc fusion, not shown: a dimerising Fc or GST)
chain: MAAVQLVESGGGLVQAGGSLRLSCVASGRSFITYAVGWFRQAPGKEREFVASVNWSGAMTYYADAVNGRFTISRDNAKNTVYLQMNNLKLEDTAVYYCAATISAVTPTNGYQNWGQGTQVTVSS
Take B6: in experiment [3], the “EC50 of PD-1/PDL1 blocking” value was greater than 0.322 µg/mL. Further, the “EC50 of the PD1/PDL1 Block Assay (luciferase fold of induction, Jurkat-PD1-NFAT-Luc + aAPC CHO-PDL1); printed as 03-23-G3; the table gives no unit, the axis is in µg/mL” value in experiment [4] is 3.45 µg/mL.
